The results in this text go back to the Immune Epitope Database (IEDB).

By Kd is commonly meant the constant that tells how readily two partners part at equilibrium. Usually IC50 stands for the midpoint of a concentration-inhibition curve.

Test [1] addresses HLA-A*01:01. In words: IEDB peptide-MHC binding, purified MHC/direct/fluorescence; filed as Kd, often an IC50 or EC50 that approximates it; ≥ and ≤ were set here for values at or beyond the usual limits of such assays.
In test [2] the target is HLA-A*02:01. Described as above.
The next test concerns the target HLA-A*03:01. Described as above.
Another test deals with HLA-A*11:01. The description is as above.
Another test has as its target HLA-A*24:02. The description is as above.
The next test concerns the target HLA-A*26:01. The description is as above.
A further test concerns the target HLA-A*31:01. The description is as above.
Another test deals with HLA-A*69:01. The description is as above.
In another test the target is HLA-B*07:02. The description is as above.
Another test concerns the target HLA-B*08:01. Described as above.
A further test deals with HLA-B*08:02. The test is described as above.
The target of test [3] is HLA-B*15:01. Described as above.
A further test addresses HLA-B*18:01. The description is as above.
A further test addresses HLA-B*27:05. Described as above.
Test [4] has as its target HLA-B*40:01. The description is as above.
In another test the target is HLA-B*44:02. The test is described as above.
The next test deals with HLA-B*46:01. The description is as above.
The target in the next test is HLA-B*58:01. Described as above.
Another test concerns the target HLA-A*30:01. The description is as above. The following applies: source organism: Escherichia coli.
The next test addresses HLA-B*35:01. The test is described as above.
The target in the next test is HLA-B*15:09. The test is described as above. The note with it: source organism: Influenza A virus(A/swine/Henan/8/2004(H9N2)).
Test [5] concerns the target HLA-A*02:01. Briefly: IEDB peptide-MHC binding, purified MHC/competitive/fluorescence; filed as Kd, often an IC50 or EC50 that approximates it; ≥ and ≤ were set here for values at or beyond the usual limits of such assays. The note with it: source organism: Yersinia pestis Nepal516.
The next test addresses HLA-B*39:01. The test is described as above. The following applies: source organism: Yersinia pestis Nepal516.
Test [6] concerns the target HLA-B*40:01. Described as above.
Test [7] has as its target HLA-A*02:01. In words: IEDB peptide-MHC binding, purified MHC/competitive/radioactivity; ≥ and ≤ were set here for values at or beyond the usual limits of such assays.
For another test, the target named is HLA-B*48:01. Briefly: IEDB peptide-MHC binding, purified MHC/competitive/fluorescence; filed as Kd, often an IC50 or EC50 that approximates it; ≥ and ≤ were set here for values at or beyond the usual limits of such assays.
In test [8] the target is HLA-A*24:03. Described as above. The note with it: source organism: Escherichia coli str. K-12 substr. MG1655.
In test [9] the target is HLA-A*01:01. In words: IEDB peptide-MHC binding, purified MHC/competitive/fluorescence; ≥ and ≤ were set here for values at or beyond the usual limits of such assays.
Test [10] concerns the target HLA-B*15:01. The description is as above. The following applies: source organism: Vaccinia virus.
In test [11] the target is HLA-A*24:03. In words: IEDB peptide-MHC binding, purified MHC/direct/fluorescence; filed as Kd, often an IC50 or EC50 that approximates it; ≥ and ≤ were set here for values at or beyond the usual limits of such assays. The note with it: source organism: Rickettsia prowazekii.
For test [12], the target named is HLA-A*02:01. In words: IEDB peptide-MHC binding, purified MHC/competitive/fluorescence; ≥ and ≤ were set here for values at or beyond the usual limits of such assays.
The mark [13] stands for this setting: source organism: Giardia lamblia ATCC 50803.
[14] abbreviates: source organism: Escherichia coli.
[15] abbreviates: source organism: Shigella dysenteriae.
The mark [16] stands for this setting: source organism: Influenza A virus (A/duck/Korea/S10/03(H3N2)).
[17] abbreviates: source organism: Influenza A virus (A/South Carolina/1/1918(H1N1)).
Setting [18] is: source organism: Rickettsia prowazekii.
The mark [19] stands for this setting: source organism: Vibrio parahaemolyticus.
Where [20] appears, read: source organism: Zaire ebolavirus.

VSSKKCTAL: the Kd in the test with HLA-A*01:01 [1] (setting [13]), with HLA-A*02:01 [2] (setting [13]), in the test with HLA-A*03:01 (setting [13]), in the test with HLA-A*11:01 (setting [13]), in the test with HLA-A*24:02 (setting [13]) and with HLA-A*26:01 (setting [13]) was not below 20 µM throughout. The Kd is not below 20 µM with HLA-A*31:01 (setting [13]); not below 20 µM with HLA-A*69:01 (setting [13]); not below 20 µM in the test with HLA-B*07:02 (setting [13]); 17.7 µM with HLA-B*08:01 (setting [13]); not below 20 µM in the test with HLA-B*08:02 (setting [13]); not below 20 µM in the test with HLA-B*15:01 [3] (setting [13]). The Kd with HLA-B*18:01 (setting [13]), with HLA-B*27:05 (setting [13]), with HLA-B*40:01 [4] (setting [13]), with HLA-B*44:02 (setting [13]), with HLA-B*46:01 (setting [13]) and with HLA-B*58:01 (setting [13]) was not below 20 µM each time.

Turning to DYLTTYFTW, the Kd with HLA-A*24:02 (source organism: Bacillus anthracis str. A0488) is not above 0.001 µM.

For IWIKLSYLW, the Kd with HLA-A*24:02 (source organism: Cryptosporidium parvum Iowa II) stood at 0.01 µM.

Turning to TTFPVNGGY, the Kd is 0.345 µM in the test with HLA-A*01:01 [1] (setting [14]); not below 20 µM with HLA-A*02:01 [2] (setting [15]); 1.46 µM with HLA-A*03:01 (setting [14]); 5.77 µM with HLA-A*11:01 (setting [14]); 0.0228 µM in the test with HLA-A*26:01 (setting [14]); 16 µM with HLA-A*30:01. Further, the Kd with HLA-A*31:01 (setting [15]) was not below 20 µM; with HLA-A*69:01 (setting [14]), 0.334 µM; with HLA-B*07:02 (setting [15]) it was not below 20 µM; with HLA-B*08:01 (setting [15]), not below 20 µM; in the test with HLA-B*15:01 [3] (setting [14]), 0.165 µM; with HLA-B*27:05 (setting [15]), not below 20 µM. In addition, the Kd in the test with HLA-B*35:01 (setting [14]) is 0.097 µM; with HLA-B*40:01 [4] (setting [15]), not below 20 µM; with HLA-B*44:02 (setting [15]), not below 20 µM; with HLA-B*58:01 (setting [14]), not below 10 µM.

For PAHKSQLVW, the Kd with HLA-A*01:01 [1] (setting [16]), in the test with HLA-A*02:01 [2] (setting [16]), with HLA-A*03:01 (setting [16]), with HLA-A*11:01 (setting [16]), with HLA-A*24:02 (setting [16]) and with HLA-A*26:01 (source organism: Influenza A virus(A/swine/Henan/8/2004(H9N2))) was not below 20 µM in each case. Besides, the Kd with HLA-A*31:01 (setting [16]), in the test with HLA-A*69:01 (setting [16]), with HLA-B*07:02 (setting [16]), with HLA-B*08:01 (setting [16]), with HLA-B*15:01 [3] (setting [16]) and with HLA-B*15:09 was not below 20 µM each time. The Kd with HLA-B*18:01 (setting [16]) was not below 20 µM; with HLA-B*27:05 (setting [16]), not below 20 µM; with HLA-B*40:01 [4] (setting [16]) it was not below 20 µM; with HLA-B*44:02 (setting [16]) it was not below 20 µM; in the test with HLA-B*46:01 (setting [16]), not below 20 µM; in the test with HLA-B*58:01 (setting [16]), 2.21 µM.

As for TQFGVPFVL, the Kd with HLA-A*02:01 [5] is 0.0135 µM; with HLA-B*39:01 it was 0.0003 µM; in the test with HLA-B*40:01 [6] (source organism: Yersinia pestis Nepal516), 0.205 µM.

Regarding RTLDKVLEV, the IC50 with HLA-A*02:01 [7] (source organism: Homo sapiens) was determined as 0.04 µM.

With RALAYDPAL, the Kd in the test with HLA-B*48:01 (source organism: Burkholderia mallei SAVP1) amounted to 0.0808 µM.

Sequence IYPGVNHGF registered a Kd with HLA-A*24:03 [8] of 0.0003 µM.

With RLFFKCIYR, the Kd was not below 20 µM in the test with HLA-A*01:01 [1] (setting [17]); not below 20 µM in the test with HLA-A*02:01 [2] (setting [17]); 0.146 µM with HLA-A*03:01 (source organism: Influenza A virus (A/Puerto Rico/8/34/Mount Sinai(H1N1))); not below 20 µM in the test with HLA-A*24:02 (setting [17]); not below 20 µM in the test with HLA-B*07:02 (setting [17]); not below 20 µM with HLA-B*08:01 (setting [17]). For the same sequence, the Kd with HLA-B*08:02 (source organism: Influenza A virus H3N2), with HLA-B*15:01 [3] (setting [17]), with HLA-B*18:01 (setting [17]), with HLA-B*27:05 (setting [17]), with HLA-B*40:01 [4] (setting [17]) and in the test with HLA-B*44:02 (setting [17]) was not below 20 µM each time. The Kd with HLA-B*46:01 (setting [17]) and with HLA-B*58:01 (setting [17]) was not below 20 µM each time.

On to RQGKPDWLL, for which, in the test with HLA-B*48:01 (source organism: Vibrio vulnificus CMCP6), the Kd was 0.124 µM.

Consider VESKNFADF, for which, in the test with HLA-B*40:01 [6] (source organism: Bacillus cereus G9241), the Kd worked out at 0.418 µM.

Take PSIATNLEY: the IC50 with HLA-A*01:01 [9] (source organism: Vaccinia virus) turned out to be 15.2 µM; with HLA-B*15:01 [10], 43.7 µM.

Take NLKLYGAEF: the Kd is not below 20 µM in the test with HLA-A*01:01 [1] (setting [18]); not below 20 µM in the test with HLA-A*02:01 [2] (setting [18]); not below 20 µM with HLA-A*03:01 (setting [18]); not below 20 µM with HLA-A*11:01 (setting [18]); 11.6 µM with HLA-A*24:03 [11]; not below 20 µM in the test with HLA-A*26:01 (setting [18]). The Kd with HLA-A*31:01 (setting [18]) is not below 20 µM; with HLA-A*69:01 (setting [18]) it was not below 20 µM; in the test with HLA-B*07:02 (setting [18]) it was not below 20 µM; with HLA-B*08:01 (setting [18]), 0.433 µM; with HLA-B*15:01 [3] (setting [18]), 0.133 µM; with HLA-B*27:05 (setting [18]), not below 20 µM. The Kd with HLA-B*35:01 (setting [18]) was 0.281 µM; with HLA-B*40:01 [4] (setting [18]) it was not below 20 µM; with HLA-B*44:02 (setting [18]) it was not below 20 µM; in the test with HLA-B*58:01 (setting [18]), not below 20 µM.

YPKCDLVEL: the Kd in the test with HLA-A*01:01 [1] (setting [19]), with HLA-A*02:01 [2] (setting [19]), with HLA-A*03:01 (setting [19]), with HLA-A*11:01 (setting [19]), with HLA-A*26:01 (setting [19]) and with HLA-A*31:01 (setting [19]) was not below 20 µM each time. Besides, the Kd in the test with HLA-A*69:01 (setting [19]) is 0.177 µM; with HLA-B*07:02 (setting [19]) it was 0.224 µM; with HLA-B*08:01 (setting [19]) it was 0.54 µM; with HLA-B*15:01 [3] (setting [19]), not below 20 µM; with HLA-B*27:05 (setting [19]), not below 20 µM; in the test with HLA-B*35:01 (setting [19]), 0.00816 µM. Also, the Kd with HLA-B*40:01 [4] (setting [19]), with HLA-B*44:02 (setting [19]) and with HLA-B*58:01 (setting [19]) was not below 20 µM throughout.

For the sequence FLPADFFPSV, the IC50 with HLA-A*02:01 [7] (source organism: Hepatitis B virus) amounted to 0.0012 µM.

In turn, RQWFIDVPL gave an equilibrium dissociation constant (Kd) with HLA-B*48:01 (source organism: dengue virus type 2) of 0.0684 µM.

Regarding NTSKSTDFL, the IC50 is not below 191 µM with HLA-A*01:01 [9] (setting [20]) and not below 495 µM with HLA-A*02:01 [12] (setting [20]).

As for ITDFHERPV, the IC50 was 6.25 µM with HLA-A*01:01 [9] (source organism: Variola virus) and 5.75 µM with HLA-A*02:01 [12] (source organism: Variola virus).

On to PTLDKVLEL, for which the IC50 with HLA-A*02:01 [7] (source organism: Homo sapiens) was determined as 10 µM.
